Several values for one entry are separate records, joined by “and”; a condition that tells them apart may be missing. Equal values may be shown once. Blank lines part the entries; values can stand above or below the molecule they belong to.
Assays:
IL-11Rα (Mus musculus) = IL-11Rα (Mus musculus) (UniProt Q64385); test: cell binding; conditions: cited from earlier work
[1] = biological target: sIL-11Rα ECD (Homo sapiens) (UniProt Q14626); test: SPR; conditions: cited from earlier work
[2] = biological target: recombinant extracellular domain of human interleukin-11 receptor subunit α (M1-V363) with a fused polyhistidine tag at the C-terminus (human) (UniProt Q14626)
sIL-11Rα ECD = biological target: T1, sIL-11Rα ECD (Homo sapiens, UniProt Q14626); test: SPR
T1 chain: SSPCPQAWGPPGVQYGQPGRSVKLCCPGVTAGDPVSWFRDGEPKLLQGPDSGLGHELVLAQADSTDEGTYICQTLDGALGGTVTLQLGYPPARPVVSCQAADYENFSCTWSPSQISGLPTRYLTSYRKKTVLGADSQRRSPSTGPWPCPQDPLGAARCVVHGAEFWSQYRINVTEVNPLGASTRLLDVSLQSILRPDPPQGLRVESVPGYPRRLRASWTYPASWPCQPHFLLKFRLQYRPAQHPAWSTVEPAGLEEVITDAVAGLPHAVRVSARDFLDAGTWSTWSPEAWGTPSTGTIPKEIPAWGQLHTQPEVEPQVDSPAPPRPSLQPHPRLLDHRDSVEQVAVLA

[3] = biological target: murine recombinant interleukin-11 (rIL-11), Mus musculus, mature protein lacking Pro1 (Mus musculus) (UniProt P47873); test: SPR; biotinylated rIL-11 immobilised on NeutrAvidin NLC sensor chip (up to 2000 RU); 5-80 nM sIL-11Rα as analyte; 25 °C; PBS, 0.05% TWEEN 20, pH 7.4; heterogeneous ligand model (two ligand populations)
[4] = biological target: macaque recombinant interleukin-11 (rIL-11), Macaca fascicularis, mature protein lacking Pro1 (Macaca fascicularis) (UniProt P20808); test: as above

IL-11Rα (Mus musculus), sequence (Q64385 24-372): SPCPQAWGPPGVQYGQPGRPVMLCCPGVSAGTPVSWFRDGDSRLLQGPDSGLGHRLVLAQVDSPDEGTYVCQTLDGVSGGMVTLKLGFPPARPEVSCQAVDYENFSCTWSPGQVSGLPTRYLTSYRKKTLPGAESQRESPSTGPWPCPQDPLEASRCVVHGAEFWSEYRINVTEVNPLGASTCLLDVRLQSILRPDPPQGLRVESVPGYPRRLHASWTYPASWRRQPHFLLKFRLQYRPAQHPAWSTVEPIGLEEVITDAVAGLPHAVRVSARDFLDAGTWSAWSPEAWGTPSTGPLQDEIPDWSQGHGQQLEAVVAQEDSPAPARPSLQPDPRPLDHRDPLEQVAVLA

EC50 of STAT3 activation (SEAP secretion, QUANTI-Blue assay) in HEK-Blue IL-6 cells stably transfected with human IL-11Rα gene [2]: 6 pM
Molecule: macaque recombinant interleukin-11 (rIL-11), Macaca fascicularis, mature protein lacking Pro1 (from UniProt P20808 23-199) (ligand)

Kd (sIL-11Rα ECD): 8.9 nM and 4.2 nM
B1: IL-11 (protein)
chain: PGPPPGSPRASPDPRAELDSTVLLTRSLLEDTRQLTIQLKDKFPADGDHNLDSLPTLAMSAGALGALQLPSVLTRLRADLLSYLRHVQWLRRAMGSSLKTLEPELGTLQTRLDRLLRRLQLLMSRLALPQLPPDPPAPPLAPPSSTWGGIRAAHAILGGLHLTLDWAVRGLLLLKTRL

Kd1 (KD, ligand population 1) [3]: 2.2 nM
Kd2 (KD, ligand population 2) [3]: 14.6 nM
kd1 (koff, ligand population 1) [3]: 0.0007 s⁻¹
kd2 (koff, ligand population 2) [3]: 0.0061 s⁻¹
Kd1 (KD, ligand population 1) [4]: 4.2 nM
Kd2 (KD, ligand population 2) [4]: 8.9 nM
kd1 (koff, ligand population 1) [4]: 0.000815 s⁻¹
kd2 (koff, ligand population 2) [4]: 0.0038 s⁻¹
B2: recombinant extracellular domain of human interleukin-11 receptor subunit α (M1-V363) with a fused polyhistidine tag at the C-terminus (receptor)
chain: SSPCPQAWGPPGVQYGQPGRSVKLCCPGVTAGDPVSWFRDGEPKLLQGPDSGLGHELVLAQADSTDEGTYICQTLDGALGGTVTLQLGYPPARPVVSCQAADYENFSCTWSPSQISGLPTRYLTSYRKKTVLGADSQRRSPSTGPWPCPQDPLGAARCVVHGAEFWSQYRINVTEVNPLGASTRLLDVSLQSILRPDPPQGLRVESVPGYPRRLRASWTYPASWPCQPHFLLKFRLQYRPAQHPAWSTVEPAGLEEVITDAVAGLPHAVRVSARDFLDAGTWSTWSPEAWGTPSTGTIPKEIPAWGQLHTQPEVEPQVDSPAPPRPSLQPHPRLLDHRDSV

Continued, molecule first:

Molecule: IL-11 (from UniProt P47873)
Kd (IL-11Rα (Mus musculus)): 10 nM

Molecule: IL-11 (from UniProt P20809)
Kd [1]: 21.9 nM and 7 nM

Molecule: murine recombinant interleukin-11 (rIL-11), Mus musculus, mature protein lacking Pro1 (from UniProt P47873 23-199) (ligand)
EC50 of STAT3 activation (SEAP secretion, QUANTI-Blue assay) in HEK-Blue IL-6 cells stably transfected with human IL-11Rα gene [2]: 84 pM

From PMC6274577 (2016)
